Experimental data taken from publication PMC11098500.
“And” between values parts separate entries of the source, which are not always exact repeats. Equal entries are not always repeated.

How the values were obtained:
[1] = molecular target: domestic dog ACE2 ectodomain (residues 1-614), Fc-tagged (domestic dog); assay: SPR
[2] = molecular target: raccoon dog ACE2 ectodomain (residues 1-614), Fc-tagged (raccoon dog) (UniProt B4XEP4); assay: SPR

Row | Substance | Kd [1] | Kd [2]
1 | SARS-CoV-2 RBD (residues 319-529), His-tagged (from UniProt P0DTC2 319-529) (domain or fragment) | 468 nM | 
2 | SARS-CoV-2 RBD (prototypic strain, residues 319-529), His-tagged (from UniProt P0DTC2 319-529) (domain or fragment) | 518 nM and 524 nM and 361 nM | 297 nM and 449 nM and 450 nM
